# According to patent US20250263489A1 (TEIJIN PHARMA, published 2025):
# Molecular target: T1, IGF-1 receptor on the cells of the PathHunter IGF1R Functional Assay (DiscoverX) (UniProt P08069 31-1367)
# Assay: cell-based or functional assay
# T1 sequence (P08069 31-1367): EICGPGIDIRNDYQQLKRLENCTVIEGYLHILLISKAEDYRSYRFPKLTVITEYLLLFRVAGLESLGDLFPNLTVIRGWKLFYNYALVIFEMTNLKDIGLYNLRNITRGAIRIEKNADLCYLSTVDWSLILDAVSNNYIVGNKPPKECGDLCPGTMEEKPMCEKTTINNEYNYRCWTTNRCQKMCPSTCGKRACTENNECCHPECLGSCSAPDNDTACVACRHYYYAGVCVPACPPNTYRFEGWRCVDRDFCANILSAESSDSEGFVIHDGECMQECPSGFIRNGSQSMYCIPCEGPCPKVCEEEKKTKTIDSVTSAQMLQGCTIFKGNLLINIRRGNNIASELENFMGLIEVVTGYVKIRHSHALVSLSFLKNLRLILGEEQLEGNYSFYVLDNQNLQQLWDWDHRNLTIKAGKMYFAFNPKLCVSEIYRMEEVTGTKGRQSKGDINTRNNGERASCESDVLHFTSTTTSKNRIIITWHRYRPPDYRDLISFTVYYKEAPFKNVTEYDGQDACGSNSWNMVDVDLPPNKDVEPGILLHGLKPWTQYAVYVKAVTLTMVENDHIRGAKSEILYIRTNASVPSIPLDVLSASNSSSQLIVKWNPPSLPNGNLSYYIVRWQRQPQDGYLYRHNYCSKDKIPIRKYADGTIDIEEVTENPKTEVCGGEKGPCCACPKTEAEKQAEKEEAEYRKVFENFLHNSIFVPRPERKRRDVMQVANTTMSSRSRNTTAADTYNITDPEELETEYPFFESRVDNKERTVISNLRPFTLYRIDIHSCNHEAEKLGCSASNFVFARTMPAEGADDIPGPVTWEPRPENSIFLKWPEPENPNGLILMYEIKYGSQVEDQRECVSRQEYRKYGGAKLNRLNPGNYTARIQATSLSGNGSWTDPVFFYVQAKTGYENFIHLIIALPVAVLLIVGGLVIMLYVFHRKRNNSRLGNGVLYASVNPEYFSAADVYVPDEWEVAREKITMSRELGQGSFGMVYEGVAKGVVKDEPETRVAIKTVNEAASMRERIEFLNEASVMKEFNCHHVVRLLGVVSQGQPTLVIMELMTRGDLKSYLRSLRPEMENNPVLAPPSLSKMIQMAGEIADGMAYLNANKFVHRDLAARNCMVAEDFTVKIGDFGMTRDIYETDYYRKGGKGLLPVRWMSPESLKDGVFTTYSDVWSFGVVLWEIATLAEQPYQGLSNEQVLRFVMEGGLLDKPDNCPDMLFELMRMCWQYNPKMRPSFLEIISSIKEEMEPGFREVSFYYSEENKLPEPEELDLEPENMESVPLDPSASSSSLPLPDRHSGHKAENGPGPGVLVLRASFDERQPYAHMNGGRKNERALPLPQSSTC
Binder,"Signal activation EC50 vs IGF11-16, PathHunter [ratio vs IGF11-16]","Signal activation Emax vs IGF11-16, PathHunter [ratio vs IGF11-16]"
"IGF11-16 with alanine substitution of W at position 33 (CDR-H1) (antibody, mouse IgG1, V domains shown) VH: QIQLQQPGAELVKPGASVKLSCKAPGYTFTSYAMHWVKQRPGQGLEWIGETNPSNSVTNYNEKFKSKATLTVDKSSSTAYMQLSSLTSEDSAVYYCTIGRGRGFAYWGQGTLVTVSA VL: DIQMNQSPSSLSASLGDTITITCRASQNINFWLSWCQQKPGNIPKLLIYKASNLHTGVPSRFSGSGSGTDFTLTISSLQPEDIATYYCLQGQSYPYTFGGGTKLEIK",0.5,0
"IGF11-16 with alanine substitution of H at position 35 (CDR-H1) (antibody, mouse IgG1, V domains shown) VH: QIQLQQPGAELVKPGASVKLSCKAPGYTFTSYWMAWVKQRPGQGLEWIGETNPSNSVTNYNEKFKSKATLTVDKSSSTAYMQLSSLTSEDSAVYYCTIGRGRGFAYWGQGTLVTVSA VL: DIQMNQSPSSLSASLGDTITITCRASQNINFWLSWCQQKPGNIPKLLIYKASNLHTGVPSRFSGSGSGTDFTLTISSLQPEDIATYYCLQGQSYPYTFGGGTKLEIK",2.2,1
"IGF11-16 with alanine substitution of N at position 52 (CDR-H2) (antibody, mouse IgG1, V domains shown) VH: QIQLQQPGAELVKPGASVKLSCKAPGYTFTSYWMHWVKQRPGQGLEWIGETAPSNSVTNYNEKFKSKATLTVDKSSSTAYMQLSSLTSEDSAVYYCTIGRGRGFAYWGQGTLVTVSA VL: DIQMNQSPSSLSASLGDTITITCRASQNINFWLSWCQQKPGNIPKLLIYKASNLHTGVPSRFSGSGSGTDFTLTISSLQPEDIATYYCLQGQSYPYTFGGGTKLEIK",2.7,0

# Molecular target: T1, IGF-1 receptor on the cells of the …
# Assay: cell-based or functional assay
# Remark: another data set of the same source
Binder,"Activation intensity (RLU), PathHunter [RLU]","Fluorescence intensity (0.1 nM) (RLU), PathHunter [RLU]","Fluorescence intensity (12.5 nM) (RLU), PathHunter [RLU]","Ratio of activation intensity, PathHunter"
"FW1_var9 antibody (antibody, V domains shown) VH: QVQLVQSGAEVKKPGASVKVSCKASGYTFTSYWMHWVRQAPGQGLEWMGETNPSNSVTNYAQKFQGRVTLTVDTSTSTAYMELSSLRSEDTAVYYCTIGRGRGFAYWGQGTLVTVSS VL: DIQMTQSPSSVSASVGDRVTITCRASQNINFWLSWYQQKPGKAPKLLIYKASNLHTGVPSRFSGSGSGTDFTLTISSLQPEDFATYYCLQGQSYPYTFGGGTKLEIK",1450,591,2040,0.67 relative to IGF11-16
"FW1_var10 antibody (antibody, V domains shown) VH: QVQLVQSGAEVKKPGASVKVSCKASGYTFTSYWMHWVRQAPGQGLEWMGETNPSNSVTNYAQKFQGRVTLTVDTSTSTAYMELSSLRSEDTATYYCTIGRGRGFAYWGQGTLVTVSS VL: DIQMTQSPSSVSASVGDRVTITCRASQNINFWLSWYQQKPGKAPKLLIYKASNLHTGVPSRFSGSGSGTDFTLTISSLQPEDFATYYCLQGQSYPYTFGGGTKLEIK",1350,516,1860,0.62 relative to IGF11-16
"FW1_var14 antibody (antibody, V domains shown) VH: QVQLVQSGAEVKKPGASVKVSCKASGYTFTSYWMHWVRQAPGQGLEWMGETNPSNSVTNYAQKFQGRVTLTVDTSTSTAYMELSSLRSEDTATYYCTIGRGRGFAYWGQGTLVTVSS VL: DIQMTQSPSSVSASVGDRVTITCRASQNINFWLSWYQQKPGKAPRLLIYKASNLHTGVPSRFSGSGSGTDFTLTISSLQPEDFATYYCLQGQSYPYTFGGGTKLEIK",1340,558,1900,0.62 relative to IGF11-16
"FW2_var2 antibody (antibody, V domains shown) VH: QVQLVQSGAEVKKPGSSVKVSCKASGYTFTSYWMHWVRQAPGQGLEWMGETNPSNSVTNYAQKFQGRVTLTVDKSTSTAYMELSSLRSEDTAVYYCTIGRGRGFAYWGQGTLVTVSS VL: DIQMTQSPSSLSASVGDRVTITCRASQNINFWLSWYQQKPGKIPKLLIYKASNLHTGVPSRFSGSGSGTDFTLTISSLQPEDVATYYCLQGQSYPYTFGGGTKLEIK",1320,572,1890,0.61 relative to IGF11-16
